Test results taken from patent publication US20140255415A1 (Novartis, published 2014).

Experiments:
[1] = biological target: T1, human LINGO-1-Fc fusion protein (natleader-hsLINGO-1-Fc) (human, UniProt Q96FE5 42-556); assay: ELISA, Fc fusion captured via goat anti-human IgG Fc, Fab detected with AP-conjugated secondary and AttoPhos
T1 construct: also called human recombinant LINGO-1-Fc; captured human LINGO-1-Fc; not shown: protein lette
T1 sequence: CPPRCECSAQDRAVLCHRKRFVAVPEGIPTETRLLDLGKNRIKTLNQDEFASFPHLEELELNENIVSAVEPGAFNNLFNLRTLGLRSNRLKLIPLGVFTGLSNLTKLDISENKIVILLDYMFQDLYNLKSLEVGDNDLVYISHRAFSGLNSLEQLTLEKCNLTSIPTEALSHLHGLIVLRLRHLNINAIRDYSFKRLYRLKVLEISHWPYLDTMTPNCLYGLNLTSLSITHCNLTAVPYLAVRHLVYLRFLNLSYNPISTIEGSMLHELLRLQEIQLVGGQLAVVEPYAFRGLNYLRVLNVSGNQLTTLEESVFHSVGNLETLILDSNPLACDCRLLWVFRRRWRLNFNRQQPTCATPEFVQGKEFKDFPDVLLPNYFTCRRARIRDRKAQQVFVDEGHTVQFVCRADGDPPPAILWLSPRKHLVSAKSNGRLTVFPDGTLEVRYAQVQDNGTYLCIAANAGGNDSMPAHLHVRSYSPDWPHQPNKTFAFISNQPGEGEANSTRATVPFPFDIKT

[2] = biological target: T2, human NgR-Fc fusion protein (R&D Systems) (human, UniProt Q9BZR6 27-447, limits assumed); assay: as above
T2 construct: Commercial protein; also called captured human NgR-Fc; not shown: Fc part of the commercial fusion protein; not described
T2 sequence (looked up): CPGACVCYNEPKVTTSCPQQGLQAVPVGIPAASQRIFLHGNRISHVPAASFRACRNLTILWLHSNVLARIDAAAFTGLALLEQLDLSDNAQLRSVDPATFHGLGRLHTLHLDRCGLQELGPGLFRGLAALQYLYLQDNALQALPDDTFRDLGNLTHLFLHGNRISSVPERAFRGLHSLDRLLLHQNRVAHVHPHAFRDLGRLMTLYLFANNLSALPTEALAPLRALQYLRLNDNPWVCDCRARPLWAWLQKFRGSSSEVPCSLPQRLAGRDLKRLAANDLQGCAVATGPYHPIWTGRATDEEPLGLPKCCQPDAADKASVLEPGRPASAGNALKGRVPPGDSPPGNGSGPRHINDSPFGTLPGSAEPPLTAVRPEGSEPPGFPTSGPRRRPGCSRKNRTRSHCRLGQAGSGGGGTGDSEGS

[3] = biological target: T3, human LINGO-1-ΔLRR-Fc (Igleader-hsLINGO-1-ΔLRR-Fc) (human, UniProt Q96FE5 40-556); assay: as above
T3 construct: Heterologous secretion signal left out; also called human LINGO-1 lacking the LRR domain
T3 sequence: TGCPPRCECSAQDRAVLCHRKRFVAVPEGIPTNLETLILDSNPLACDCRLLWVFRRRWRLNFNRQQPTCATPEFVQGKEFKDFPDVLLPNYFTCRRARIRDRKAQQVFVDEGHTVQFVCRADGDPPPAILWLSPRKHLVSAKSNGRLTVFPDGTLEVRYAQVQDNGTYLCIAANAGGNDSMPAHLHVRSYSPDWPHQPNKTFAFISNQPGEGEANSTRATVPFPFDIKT

[4] = biological target: T4, rat LINGO-1 expressed on CHO-K1 cells (CHO-K1-rLINGO-1) (rat, UniProt A0A8I5ZPI2 34-614); assay: apparent KD, FACS saturation binding on CHO-K1-rLINGO-1 cells, Fab format
T4 construct: range 34-614; not shown: 2 amino acid residue linker
T4 sequence: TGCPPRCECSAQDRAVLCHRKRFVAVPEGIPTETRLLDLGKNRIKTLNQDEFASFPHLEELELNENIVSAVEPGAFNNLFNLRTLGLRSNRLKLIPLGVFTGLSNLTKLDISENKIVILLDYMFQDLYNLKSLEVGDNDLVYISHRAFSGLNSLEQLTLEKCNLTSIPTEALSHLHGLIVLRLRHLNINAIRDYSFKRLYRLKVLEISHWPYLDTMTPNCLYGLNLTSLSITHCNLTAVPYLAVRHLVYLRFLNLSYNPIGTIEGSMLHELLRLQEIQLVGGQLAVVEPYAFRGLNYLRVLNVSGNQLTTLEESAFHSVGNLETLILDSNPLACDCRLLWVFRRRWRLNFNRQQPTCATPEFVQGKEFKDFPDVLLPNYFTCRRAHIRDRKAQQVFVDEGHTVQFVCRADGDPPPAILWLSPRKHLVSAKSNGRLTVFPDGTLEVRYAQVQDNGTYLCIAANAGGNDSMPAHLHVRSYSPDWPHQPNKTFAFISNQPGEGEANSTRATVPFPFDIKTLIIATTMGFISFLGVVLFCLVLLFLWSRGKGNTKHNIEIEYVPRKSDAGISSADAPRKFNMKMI
Procedure: Cell based affinity of anti-LINGO-1 specific antibodies is determined by FACS saturation binding experiments. […] Otherwise the staining procedure is done identical to the FACS staining procedure described above.
In detail, CHO-K1-hLINGO-1, CHO-K1-cmLINGO-1 or CHO-K1-rLINGO-1 are detached from culture flasks by versene, washed with FACS buffer and resuspended in FACS buffer. Purified anti-LINGO-1 Fabs are serially diluted in FACS buffer and spread into round bottom 96-well microtiter plates (NUNC™, Wiesbaden, Germany). For each concentration, duplicate wells are incubated with 1.25×10⁴ cells for 30-60 min on ice in a total volume of 100 μl.

B1: anti-LINGO-1 Fab 4785 (Fab, V domains shown)
VH: QVQLQQSGPGLVKPSQTLSLTCAISGDSVSDNSAAWSWIRQSPGRGLEWLGLIYLRSKWDNDYAVSVKSRITINPDTSKNQFSLQLNSVTPEDTAVYYCARTGRADEFDVWGQGTLVTVSS
VL: DIVLTQPPSVSGAPGQRVTISCSGSSSNIGNNYVSWYQQLPGTAPKLLISRNSKRPSGVPDRFSGSKSGTSASLAITGLQSEDEADYYCSTYDTFSIVFGGGTKLTVLG
relative fluorescence units (RFU) [1]: 113 RFU | relative fluorescence units (RFU) [2]: 7 RFU | relative fluorescence units (RFU) [3]: 8 RFU | Kd [4]: 0.26 nM
